Laboratory results from US20120253008A1 (Ablynx, published 2012).
Read-outs that look alike come from different tables or passages of the source.

Assays:
[1] = target: T1, human serum albumin (human, UniProt P02768 25-609); assay: phage ELISA, 5-fold phage dilutions on coated HSA, anti-M13 detection, near-infrared fluorescence
T1 construct: also called HSA
Experimental: 5-fold serial dilutions of phage clones (starting from ˜5×10¹¹ phage) were added to 96-well Nunc Maxisorp plates coated with human serum albumin (2 μg/ml in PBS, overnight at 4° C.; plates were blocked with Superblock T20 (Pierce) for 1 h at room temperature). […] The amount of IRDye bound was measured on Odyssey (LI-COR Biosciences). The dilution of phage was plotted against measured near-infrared fluorescence intensity (FIG. 2).

[2] = target: T1, human serum albumin; assay: phage competition ELISA: phage pre-incubated with 2 µM HSA, captured on coated HSA
Experimental: (§1) Unbound phage was captured by transferring 100 μl of the well mixture to the HSA coated Maxisorp plate and incubating at room temperature for 30 minutes. The plate with captured phage was washed with PBS-0.05% Tween 20 five times. Bound phages were detected with anti-M13 and goat-anti mouse IRDye conjugate. The amount of IRDye bound was measured on Odyssey (LI-COR Biosciences). The ratio of phage binding was calculated by the following equation: fluorescence signal of well with competitor/fluorescence signal of well with no competitor (Table III).
After respectively three and four selection rounds, monoclonal phage were screened for binding on HSA, in the manner described in Example 2. Clones that bind to HSA (FIGS. 7A to 7C and Table V) were screened in phage competition ELISA, in the manner described in Example 5. The ratio of phage binding was calculated by the following equation: fluorescence signal of well with 2 μM competitor/fluorescence signal of well with no competitor (Table VI).

[3] = target: T2, von Willebrand factor (human, UniProt P04275 764-2813); assay: inhibition ELISA: ristocetin-induced binding of plasma vWF to fixed human platelets (glycoprotein Ib), bound vWF detected with anti-VWF-HRP
T2 construct: vWF of the human plasma in which the compounds were diluted; multimeric; also called vWF; VWF

[4] = target: T3, cynomolgus monkey serum albumin (cynomolgus monkey, UniProt A2V9Z4 25-608); assay: SPR, BIAcore 3000, CSA on CM5 chip
T3 construct: amine-coupled to a CM5 chip; also called CSA; cynoSA
T3 sequence (A2V9Z4 25-608 limits assumed): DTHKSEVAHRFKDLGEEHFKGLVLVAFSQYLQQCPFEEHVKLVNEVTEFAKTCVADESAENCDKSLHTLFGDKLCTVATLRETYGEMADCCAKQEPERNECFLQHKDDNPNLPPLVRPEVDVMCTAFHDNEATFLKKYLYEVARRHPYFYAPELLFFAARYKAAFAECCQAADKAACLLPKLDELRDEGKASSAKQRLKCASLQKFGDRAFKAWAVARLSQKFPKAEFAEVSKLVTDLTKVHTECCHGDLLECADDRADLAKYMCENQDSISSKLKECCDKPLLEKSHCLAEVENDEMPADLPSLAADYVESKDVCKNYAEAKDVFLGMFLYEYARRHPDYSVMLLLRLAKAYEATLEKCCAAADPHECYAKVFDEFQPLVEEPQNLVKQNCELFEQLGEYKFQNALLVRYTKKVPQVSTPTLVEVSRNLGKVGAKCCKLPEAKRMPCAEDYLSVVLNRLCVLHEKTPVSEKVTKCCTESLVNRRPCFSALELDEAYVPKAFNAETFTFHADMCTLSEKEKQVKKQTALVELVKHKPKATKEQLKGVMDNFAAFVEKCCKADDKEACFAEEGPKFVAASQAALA
Experimental: (§2) For this purpose, binding to HSA and CSA was assessed in BIAcore™ 3000, by injecting concentration series of the fusion proteins ranging from 2 μM to 200 nM on a CM5 chip coated with ˜3000 RU HSA or CSA. Coating of the chip (CM5) was performed by amine coupling using NHS/EDC for activation and ethanolamine for deactivation (Biacore amine coupling kit). HBS-EP was used as flow buffer at a rate of […]. 90 μl of sample was injected for 120 s.

[5] = target: T1, human serum albumin; assay: SPR, BIAcore 3000, HSA on CM5 chip
Experimental: as §2

[6] = target: T1, human serum albumin; assay: SPR, BIAcore 3000, HSA on CM5 chip; remark: listed apart in the source
Experimental: For this purpose, the fusion proteins were expressed in E. coli TG1 cells. […] Coating of the chip (CM5) was performed by amine coupling using NHS/EDC for activation and ethanolamine for deactivation (Biacore amine coupling kit). HBS-EP was used as flow buffer at a rate of 10 μl min-1. 20 μl of sample was injected for 120 s.

[7] = target: T3, cynomolgus monkey serum albumin; assay: SPR, BIAcore 3000, CSA on CM5 chip; remark: listed apart in the source
Experimental: as §2, with “The” for “For this purpose,”, “binding” for “binding to HSA and CSA”, “determined” for “assessed”

[8] = target: T1, human serum albumin; assay: solution binding competition ELISA: phage pre-incubated with 1 µM HSA, captured on coated HSA
Experimental: A competition ELISA was performed to determine the relative binding affinity for the selected phage clones. 96-well Nunc Maxisorp plates were coated with 2 μg/ml HSA in coating buffer at 4° C. Plates were blocked with SuperblockT20 (Pierce) for 1 h at room temperature. The microtiter plates were washed with wash buffer (PBS, 0.05% Tween 20).
as §1

AAYYYDYDVFGGGTPGGE [PMP56E2]
binding result [1]: binds

AARDWDFDVFGGGTPVGG [59C2]
Ratio 2 µM/0 µM HSA [2]: 0.91

AARYWDFDVFGGGTPVGG [59F2]
Ratio 2 µM/0 µM HSA [2]: 0.69

AARSWDFDVFGGGTPVGG [59H12]
Ratio 2 µM/0 µM HSA [2]: 0.87

AAPYRDYDVFGGGTPRGE [PMP56F2]
binding result [1]: binds

AASYSDYDVFGGGTDFGP [17D12]
binding result [1]: binds

B1: 12A2_sv1-AAA-12A2_sv1 (VHH)
chain: DVQLVESGGGLVQPGGSLRLSCAASGRTFSYNPMGWFRQAPGKGRELVAAISRTGGSTYYPESVEGRFTISRDNAKRTVYLQMNSLRAEDTAVYYCAAAGVRAEQGRVRTLPSEYTFWGQGTQVTVSSAAAEVQLVESGGGLVQPGGSLRLSCAASGRTFSYNPMGWFRQAPGKGRELVAAISRTGGSTYYPESVEGRFTISRDNAKRTVYLQMNSLRAEDTAVYYCAAAGVRAEQGRVRTLPSEYTFWGQGTQVTVSS
notes: also called vWF-001; vWF-0001
IC50 (read off the curve) [3]: ~10 nM

B2: 12A2 sv1-9GS-59C2-9GS-12A2 sv1 (VHH)
chain: DVQLVESGGGLVQPGGSLRLSCAASGRTFSYNPMGWFRQAPGKGRELVAAISRTGGSTYYPESVEGRFTISRDNAKRTVYLQMNSLRAEDTAVYYCAAAGVRAEQGRVRTLPSEYTFWGQGTQVTVSSGGGGSGGGSRDWDFDVFGGGTPVGGGGGGSGGGSEVQLVESGGGLVQPGGSLRLSCAASGRTFSYNPMGWFRQAPGKGRELVAAISRTGGSTYYPESVEGRFTISRDNAKRTVYLQMNSLRAEDTAVYYCAAAGVRAEQGRVRTLPSEYTFWGQGTQVTVSS
notes: also called vWF-0053; vWF 0053
binding result [3]: binds

B3: vWF0054 (VHH)
single chain fusion protein: DVQLVESGGGLVQPGGSLRLSCAASGRTFSYNPMGWFRQAPGKGRELVAAISRTGGSTYYPESVEGRFTISRDNAKRTVYLQMNSLRAEDTAVYYCAAAGVRAEQGRVRTLPSEYTFWGQGTQVTVSSGGGGSGGGSRDWDFDVFGGGTPVGGGGGGSGGGSRDWDFDVFGGGTPVGGGGGGSGGGSEVQLVESGGGLVQPGGSLRLSCAASGRTFSYNPMGWFRQAPGKGRELVAAISRTGGSTYYPESVEGRFTISRDNAKRTVYLQMNSLRAEDTAVYYCAAAGVRAEQGRVRTLPSEYTFWGQGTQVTVSS
notes: also called 12A2 sv1-9GS-59C2-9GS-59C2-9GS-12A2 sv1
binding result [3]: binds

B4: 12A2 sv1-AAA-12A2 sv1-9GS-59C2-9GS-59C2 (VHH)
chain: DVQLVESGGGLVQPGGSLRLSCAASGRTFSYNPMGWFRQAPGKGRELVAAISRTGGSTYYPESVEGRFTISRDNAKRTVYLQMNSLRAEDTAVYYCAAAGVRAEQGRVRTLPSEYTFWGQGTQVTVSSAAAEVQLVESGGGLVQPGGSLRLSCAASGRTFSYNPMGWFRQAPGKGRELVAAISRTGGSTYYPESVEGRFTISRDNAKRTVYLQMNSLRAEDTAVYYCAAAGVRAEQGRVRTLPSEYTFWGQGTQVTVSSGGGGSGGGSRDWDFDVFGGGTPVGGGGGGSGGGSRDWDFDVFGGGTPVGG
notes: also called vWF-0056; VWF0056
IC50 (read off the curve) [3]: ~20 nM

B5: 2D3-9GS-56E4-MycHis (other)
chain: EVQLVESGGSLVQPGGSLRLSCAASGFTFDDYAMSWVRQVPGKGLEWVSSINWSGTHTDYADSVKGRFTISRNNANNTLYLQMNSLKSEDTAVYYCAKNWRDAGTTWFEKSGSAGQGTQVTVSSGGGGSGGGSAAARYWDYDVFGGGTPVGGAAAEQKLISEEDLNGAAHHHHHH
Kd [4]: 2110 nM | kon [4]: 4010 M⁻¹ s⁻¹ | Kd [5]: 991 nM | koff [5]: 0.00497 s⁻¹ | kon [5]: 5020 M⁻¹ s⁻¹

B6: 2D3-9GS-59C2-MycHis (other)
chain: EVQLVESGGSLVQPGGSLRLSCAASGFTFDDYAMSWVRQVPGKGLEWVSSINWSGTHTDYADSVKGRFTISRNNANNTLYLQMNSLKSEDTAVYYCAKNWRDAGTTWFEKSGSAGQGTQVTVSSGGGGSGGGSAAARDWDFDVFGGGTPVGGAAAEQKLISEEDLNGAAHHHHHH
Kd [4]: 775 nM | kon [4]: 2750 M⁻¹ s⁻¹ | Kd [5]: 481 nM | koff [5]: 0.00179 s⁻¹ | kon [5]: 3730 M⁻¹ s⁻¹

B7: 2D3-56H5 fusion protein (other)
chain: EVQLVESGGSLVQPGGSLRLSCAASGFTFDDYAMSWVRQVPGKGLEWVSSINWSGTHTDYADSVKGRFTISRNNANNTLYLQMNSLKSEDTAVYYCAKNWRDAGTTWFEKSGSAGQGTQVTVSSGGGGSGGGSAAAFYDDYDVFGGGTPAGGAAAEQKLISEEDLNGAAHHHHHH
Kd [6]: ~1200 nM | koff [6]: 0.0093 s⁻¹ | kon [6]: 7570 M⁻¹ s⁻¹

B8: 2D3-9GS-59F2-MycHis (other)
chain: EVQLVESGGSLVQPGGSLRLSCAASGFTFDDYAMSWVRQVPGKGLEWVSSINWSGTHTDYADSVKGRFTISRNNANNTLYLQMNSLKSEDTAVYYCAKNWRDAGTTWFEKSGSAGQGTQVTVSSGGGGSGGGSAAARYWDFDVFGGGTPVGGAAAEQKLISEEDLNGAAHHHHHH
Kd [4]: 1040 nM | kon [4]: 4850 M⁻¹ s⁻¹ | Kd [5]: 571 nM | koff [5]: 0.00351 s⁻¹ | kon [5]: 6140 M⁻¹ s⁻¹

B9: 2D3-9GS-59H12-MycHis (other)
chain: EVQLVESGGSLVQPGGSLRLSCAASGFTFDDYAMSWVRQVPGKGLEWVSSINWSGTHTDYADSVKGRFTISRNNANNTLYLQMNSLKSEDTAVYYCAKNWRDAGTTWFEKSGSAGQGTQVTVSSGGGGSGGGSAAARSWDFDVFGGGTPVGGAAAEQKLISEEDLNGAAHHHHHH
Kd [4]: 1280 nM | kon [4]: 3450 M⁻¹ s⁻¹ | Kd [5]: 663 nM | koff [5]: 0.00304 s⁻¹ | kon [5]: 4590 M⁻¹ s⁻¹

B10: 2D3-9GS-56E4 (other)
chain: EVQLVESGGSLVQPGGSLRLSCAASGFTFDDYAMSWVRQVPGKGLEWVSSINWSGTHTDYADSVKGRFTISRNNANNTLYLQMNSLKSEDTAVYYCAKNWRDAGTTWFEKSGSAGQGTQVTVSSGGGGSGGGSRYWDYDVFGGGTPVGG
notes: untagged; Nanobody 2D3, 9GS linker, 56E4 without the two N-terminal alanines; also called 2D3-9GS-EXP56E4
Kd [7]: 495 nM | kon [7]: 17100 M⁻¹ s⁻¹

B11: 2D3-9GS-59C2 (other)
chain: EVQLVESGGSLVQPGGSLRLSCAASGFTFDDYAMSWVRQVPGKGLEWVSSINWSGTHTDYADSVKGRFTISRNNANNTLYLQMNSLKSEDTAVYYCAKNWRDAGTTWFEKSGSAGQGTQVTVSSGGGGSGGGSRDWDFDVFGGGTPVGG
notes: untagged; also called 2D3-9GS-EXP59C2; 2D3-EXP59C2
Kd [7]: 276 nM | kon [7]: 8980 M⁻¹ s⁻¹

AALYDDYDVFGGGTPVGG (also called 01C7; PMP26A3) [PMP56A3]
Ratio 1 µM/0 µM HSA [8]: 0.47

AALYDDYDVFGGGTPAGG [01B3]
Ratio 1 µM/0 µM HSA [8]: 0.42

AAFYDDYDVFGGGTPAGG (also called 01G7) [PMP56H5]
Ratio 1 µM/0 µM HSA [8]: 0.43

AARYWDYDVFGGGTPVGG (also called EXP56E4) [PMP56E4]
Ratio 2 µM/0 µM HSA [2]: 0.82
